The source of these data is US20200255527.

Data set [1] concerns the target FH-AGO2 mono-methylated at K726 (ectopically expressed in MCF-7 cells with LSD1 inhibited) (UniProt Q9UKV8).
For a further data set, the target named is FH-AGO2-K726R (UniProt Q9UKV8).
FH-AGO2-K726R, sequence (Q9UKV8 whole entry K726R): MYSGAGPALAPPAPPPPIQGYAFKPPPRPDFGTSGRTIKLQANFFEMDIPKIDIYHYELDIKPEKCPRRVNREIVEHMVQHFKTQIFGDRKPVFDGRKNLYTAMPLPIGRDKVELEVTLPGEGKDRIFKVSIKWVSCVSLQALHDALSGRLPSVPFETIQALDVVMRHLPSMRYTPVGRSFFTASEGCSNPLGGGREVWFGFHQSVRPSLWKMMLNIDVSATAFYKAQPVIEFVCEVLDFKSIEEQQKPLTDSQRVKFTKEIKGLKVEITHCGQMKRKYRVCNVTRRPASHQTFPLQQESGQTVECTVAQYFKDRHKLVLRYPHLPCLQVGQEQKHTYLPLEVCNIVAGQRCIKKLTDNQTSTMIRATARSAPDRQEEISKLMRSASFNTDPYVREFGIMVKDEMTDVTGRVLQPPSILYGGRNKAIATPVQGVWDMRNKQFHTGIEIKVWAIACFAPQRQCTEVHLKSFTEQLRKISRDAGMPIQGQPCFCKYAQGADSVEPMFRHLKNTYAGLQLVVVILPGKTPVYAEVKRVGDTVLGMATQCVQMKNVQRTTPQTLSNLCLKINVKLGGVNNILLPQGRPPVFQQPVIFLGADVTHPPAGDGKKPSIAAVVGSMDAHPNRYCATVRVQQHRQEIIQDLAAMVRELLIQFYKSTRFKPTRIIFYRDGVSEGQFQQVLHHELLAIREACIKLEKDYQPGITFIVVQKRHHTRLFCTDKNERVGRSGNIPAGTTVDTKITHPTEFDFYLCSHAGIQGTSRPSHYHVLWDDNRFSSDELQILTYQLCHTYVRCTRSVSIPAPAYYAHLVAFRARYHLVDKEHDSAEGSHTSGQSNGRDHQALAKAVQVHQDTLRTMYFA

FH-AGO2 mono-methylated at K726 (ectopically expressed in MCF-7 cells with LSD1 inhibited), sequence (Q9UKV8 whole entry): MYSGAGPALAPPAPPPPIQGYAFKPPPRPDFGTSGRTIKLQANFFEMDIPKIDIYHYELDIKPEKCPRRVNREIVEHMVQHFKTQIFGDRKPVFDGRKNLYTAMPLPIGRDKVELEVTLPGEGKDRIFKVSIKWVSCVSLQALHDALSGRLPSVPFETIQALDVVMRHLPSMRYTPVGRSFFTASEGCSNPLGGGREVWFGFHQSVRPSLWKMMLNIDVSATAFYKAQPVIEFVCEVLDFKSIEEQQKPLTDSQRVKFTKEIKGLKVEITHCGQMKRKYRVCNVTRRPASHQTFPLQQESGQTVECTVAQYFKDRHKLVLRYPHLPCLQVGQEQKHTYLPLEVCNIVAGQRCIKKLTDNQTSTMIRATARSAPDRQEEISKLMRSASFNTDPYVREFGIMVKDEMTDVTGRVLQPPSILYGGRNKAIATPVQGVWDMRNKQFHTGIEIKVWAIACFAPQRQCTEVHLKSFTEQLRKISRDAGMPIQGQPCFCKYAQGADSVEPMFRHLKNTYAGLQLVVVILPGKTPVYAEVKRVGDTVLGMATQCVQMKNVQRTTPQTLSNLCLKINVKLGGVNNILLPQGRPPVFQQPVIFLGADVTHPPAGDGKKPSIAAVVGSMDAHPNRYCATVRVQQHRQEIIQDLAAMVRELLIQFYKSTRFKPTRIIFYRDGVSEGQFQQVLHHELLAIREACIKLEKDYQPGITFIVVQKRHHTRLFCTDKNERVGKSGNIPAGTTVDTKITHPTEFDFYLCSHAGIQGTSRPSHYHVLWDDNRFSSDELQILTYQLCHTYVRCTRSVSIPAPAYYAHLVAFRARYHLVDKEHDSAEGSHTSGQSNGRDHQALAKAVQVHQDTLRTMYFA

Regarding “FH-LSD1-K661A (catalytically compromised LSD1)”, in data set [1], the “K726me1 level on FH-AGO2 in in vitro demethylation assay” value was “FH-LSD1 but not FH-LSD1-K661A decreased K726me1 level on FH-AGO2”.

As to “FH-LSD1 (Flag-HA-tagged LSD1 stably expressed in MCF-7 cells)”, in the data set with FH-AGO2-K726R, the “K726me1 level in in vitro demethylation assay” value is recorded as “had no observable effects on FH-AGO2-K726R”. The “K726me1 level on FH-AGO2 in in vitro demethylation assay” value in data set [1] is “FH-LSD1 but not FH-LSD1-K661A decreased K726me1 level on FH-AGO2”.
